This note sets out measurements from paper PMC5650642.

Data set [1] addresses T1, His-OpaR (Vibrio parahaemolyticus RIMD2210633) (UniProt Q79YV4).
T1 sequence: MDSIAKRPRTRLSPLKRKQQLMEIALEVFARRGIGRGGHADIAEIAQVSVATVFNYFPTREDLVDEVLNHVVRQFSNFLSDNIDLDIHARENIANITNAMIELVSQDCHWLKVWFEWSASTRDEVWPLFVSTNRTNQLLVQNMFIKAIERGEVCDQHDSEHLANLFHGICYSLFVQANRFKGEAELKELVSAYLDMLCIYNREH
As to the kind of experiment: DNase I footprinting.

Data set [2] addresses His-ToxR (Vibrio parahaemolyticus RIMD2210633) (UniProt Q05938). As to the kind of experiment: DNase I footprinting.
Sequence of UniProt Q05938 (Q05938 1-176): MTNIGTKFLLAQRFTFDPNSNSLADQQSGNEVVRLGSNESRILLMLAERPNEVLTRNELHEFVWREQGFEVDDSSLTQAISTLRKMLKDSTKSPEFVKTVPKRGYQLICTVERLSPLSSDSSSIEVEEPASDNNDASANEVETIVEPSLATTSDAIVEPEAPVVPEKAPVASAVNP

On to “ACACTTTGCACTCTTTTATGGAACAAATATTATTAGACCGAAATAATATTTGCTGAAACATCCTTGTTTCAAGGGTAGTATTTAAAACGAACAGTAAGCCTATTATTTTAGTTATAATTACTAAGTTATTAGACTCTTTGACTTACGCTTTCACTACCTGAATTACGTTGTTTTAGAAATTAAAATTTCAACAACGTAATATGACTTCATTTTCATTATATATTTCGACAAAGAATGATTAGCACGC (double strand) [VP1400 footprinting fragment]”, for which the binding entry in data set [1] and in data set [2] was “binds” each time.

Consider “ATTCTCCACAACCAACATCGTAAACATGGTTGCGGTGACGTTTAAGCTGATAAGGCTTACAAGTACGATTTGGTGTGCTAATGCTACTAATTTAATTCATAACATTCAATCACATAGAAAACTTCCAGAAAACCGAAATGCCCGAGAAATAACAAAACCACAGGTTATTTGGTTGTTTTAACTATCAATTCAAACTTATTACCCTTCAATCCAACTCAAAAGGCAGGCTTTAAGCAAAAACAGTTTTTTACTTTTGGGCAGAAGTTAACAAATTCAA (double strand) [VP1388 footprinting fragment]”, for which the binding result in data set [1] is “binds”. For “CGCTTGGATTACTTTCATCGATCGGTCTTCTTGTGAAGTCGCTGAAAAACATAATGTTAAGTTCCAACTGAGTTGATAATAAAATAATAAAGATAGATTTTTTTATTGTATTCGCCTGCTATGCCAAATGACATGCAATGCATTTTTTCTGATTTTATAGATAAAAAAAGATTTTTAGACAATAAAAAGCCGATAAATCTAATTAAAATCCATTTTGTGTGATCTTTGTTCCTAAT (double strand) [VP1409 footprinting fragment(s)]”, the binding result in data set [1] and in data set [2] was “binds” each time.
